T1: biotinylated ARR1-REC-GARP (ARR1 residues 1-296), construct for BLI (Arabidopsis thaliana, UniProt Q940D0 1-296, biotin on the Avi-tag (by co-expressed BirA))
T1 construct: ARR1, Arabidopsis thaliana, UniProt Q940D0, residues 1-296 (REC domain and GARP motif); cloned into pMCSG62, which provides the Avi-tag; The results define ARR1-RG as 38-296; the methods give 1-296 for the BLI construct; also called ARR1-RG; biotinylated variant of ARR1-RG; source: E. coli BL21 Gold, co-expressed with BirA, purified (Ni-NTA)
T1 sequence (looked up): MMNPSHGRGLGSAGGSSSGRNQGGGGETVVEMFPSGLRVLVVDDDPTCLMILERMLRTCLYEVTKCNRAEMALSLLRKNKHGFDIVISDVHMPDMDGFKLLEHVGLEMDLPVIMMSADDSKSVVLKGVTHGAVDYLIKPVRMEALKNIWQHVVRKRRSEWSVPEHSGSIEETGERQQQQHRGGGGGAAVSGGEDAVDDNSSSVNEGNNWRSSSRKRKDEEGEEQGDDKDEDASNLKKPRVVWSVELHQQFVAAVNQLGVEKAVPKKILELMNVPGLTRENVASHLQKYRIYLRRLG

T2: ARR1-REC-GARP (ARR1 residues 38-296), construct for structural studies (Arabidopsis thaliana, UniProt Q940D0 38-296)
T2 construct: ARR1, Arabidopsis thaliana, UniProt Q940D0, residues 38-296: REC domain (38-158), linker (159-235, not visible in the map), GARP motif (236-296); cloned into pMCSG53; TEV protease was not able to cleave the His-tag, so it stayed on the protein; also called ARR1-RG; source: E. coli BL21 Gold, purified (Ni-NTA; then SEC of the complex)
T2 sequence (looked up): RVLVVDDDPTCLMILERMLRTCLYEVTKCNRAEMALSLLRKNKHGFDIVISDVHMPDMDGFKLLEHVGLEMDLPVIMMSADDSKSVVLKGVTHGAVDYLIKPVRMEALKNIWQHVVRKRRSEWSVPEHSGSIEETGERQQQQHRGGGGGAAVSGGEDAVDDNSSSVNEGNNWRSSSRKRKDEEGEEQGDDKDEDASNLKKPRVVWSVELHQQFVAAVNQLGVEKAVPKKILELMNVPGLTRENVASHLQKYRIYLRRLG

B1: AHP1 (Arabidopsis histidine-containing phosphotransfer protein 1), full length (natural protein, Arabidopsis thaliana, UniProt Q9ZNV9 1-154, looked up)
chain: MDLVQKQKSLQDYTKSLFLEGILDSQFLQLQQLQDESNPDFVSQVVTLFFQDSDRILNDLSLSLDQQVVDFKKVDPHVHQLKGSSSSIGAQRVKNACVVFRSFCEQQNVEACHRCLQQVKQEYYLVKNRLETLFKLEQQIVASGGMIPAVELGF
notes: AHP1, Arabidopsis thaliana, UniProt Q9ZNV9, full-length protein cloned from A. thaliana cDNA into pMCSG53; Unphosphorylated; source: E. coli BL21 Gold, purified (Ni-NTA, TEV digestion, second Ni-NTA, SEC)

Assays:
[1] = biological target: biotinylated ARR1-REC-GARP (ARR1 residues 1-296), construct for BLI (Arabidopsis thaliana) (UniProt Q940D0); assay: BLI; biotinylated ARR1-REC-GARP immobilised on Octet SA biosensors, AHPs as analytes; fit of the binding kinetics; 20 mM HEPES/NaOH pH 7.0, 50 mM NaCl, 50 mM KCl, 0.5 mM TCEP, 0.5% BSA, 0.05% Tween 20; 25°C
[2] = biological target: biotinylated ARR1-REC-GARP (ARR1 residues 1-296), construct for BLI (Arabidopsis thaliana) (UniProt Q940D0); assay: BLI; biotinylated ARR1-REC-GARP immobilised on Octet SA biosensors, AHPs as analytes; fit of the steady-state data; 20 mM HEPES/NaOH pH 7.0, 50 mM NaCl, 50 mM KCl, 0.5 mM TCEP, 0.5% BSA, 0.05% Tween 20; 25°C
[3] = biological target: T1, biotinylated ARR1-REC-GARP (ARR1 …); assay: BLI; biotinylated ARR1-REC-GARP immobilised on Octet SA biosensors, AHPs as analytes; fit of the binding kinetics; 20 mM HEPES/NaOH pH 7.0, 50 mM NaCl, 50 mM KCl, 0.5 mM TCEP, 0.5% BSA, 0.05% Tween 20; 25°C; conditions: both partners purified
[4] = biological target: T2, ARR1-REC-GARP (ARR1 residues 38-296), …; assay: crystal structure; complex from mixing 1 ARR1 : 1.5 AHP1, purified by SEC; crystals from Morpheus G11, pH 8.5, 32.5 mg/mL; 2.9 Å; two complexes in the asymmetric unit; conditions: both partners purified
[5] = biological target: T1, biotinylated ARR1-REC-GARP (ARR1 …); assay: BLI; biotinylated ARR1-REC-GARP immobilised on Octet SA biosensors, AHPs as analytes; fit of the steady-state data; 20 mM HEPES/NaOH pH 7.0, 50 mM NaCl, 50 mM KCl, 0.5 mM TCEP, 0.5% BSA, 0.05% Tween 20; 25°C; conditions: both partners purified

| Molecule | Kd [1] [nM] | koff [1] [s⁻¹] | kon [1] [M⁻¹ s⁻¹] | Kd [2] [nM] | Kd [3] [nM] | koff [3] [s⁻¹] | kon [3] [M⁻¹ s⁻¹] | stoichiometry N [4] | Kd [5] [nM] |
| --- | --- | --- | --- | --- | --- | --- | --- | --- | --- |
| AHP3 (Arabidopsis histidine-containing phosphotransfer protein 3) (natural protein) | 174 | 0.0917 | 522000 | 175 |  |  |  |  |  |
| AHP2 (Arabidopsis histidine-containing phosphotransfer protein 2) (natural protein) | 160 | 0.0913 | 573000 | 160 |  |  |  |  |  |
| AHP5 (Arabidopsis histidine-containing phosphotransfer protein 5) (natural protein) | 152 | 0.089 | 588000 | 150 |  |  |  |  |  |
| AHP4 (Arabidopsis histidine-containing phosphotransfer protein 4) (natural protein) | 166 | 0.06 | 360000 | 170 |  |  |  |  |  |
| B1 |  |  |  |  | 94 | 0.0423 | 444000 | 1 | 94 |
